Test results as given in the RNAGym collection of RNA variant scans (doi:10.7554/elife.80360).

B1: HDV Ribozyme (parent)
chain: GGCCGGCAUGGUCCCAGCCUCCUCGCUGGCGCCGGCUGGGCAACAUUCCGAGGGGACCGUCCCCUCGGUAAUGGCGAAUGGGACCCA

Variants of: B1
Assay: self-cleavage, relative activity (ratio to wild type); higher = more cleavage; co-transcriptional
In the case of G2C A83U, the self-cleavage is reported as 0.0791.
In the case of C3G G74U, the self-cleavage is reported as 0.189.
Work on C3G G74C yielded a self-cleavage of 0.0779.
Variant C4A C24G has a self-cleavage of 0.0573.
In the case of C3A C36G, the self-cleavage is reported as 0.0608.
C3G A56G gave a self-cleavage of 0.692.
C3G A56C gave a self-cleavage of 0.681.
With C3A U60A the self-cleavage was 0.611.
Work on G2C C4G yielded a self-cleavage of 0.794.
For G2C C4A, the self-cleavage was 0.0282.
For C3U A45C, the self-cleavage was 0.43.
Work on C3U A45G yielded a self-cleavage of 0.607.
Variant G2U G11A has a self-cleavage of 0.0304.
G2U G11U showed a self-cleavage of 0.0529.
Variant G2U G11C has a self-cleavage of 0.0314.
In the case of C3U C64A, the self-cleavage is reported as 0.518.
G2U C26G showed a self-cleavage of 0.0627.
G2U C3A showed a self-cleavage of 0.0484.
With C3U U37C the self-cleavage was 1.08.
Variant C3G C15A has a self-cleavage of 0.293.
Work on C3G C15G yielded a self-cleavage of 0.266.
For G2C C75U, the self-cleavage was 0.0594.
For G2U U20A, the self-cleavage was 0.0563.
G2U U20C gave a self-cleavage of 0.
In the case of C3G C26A, the self-cleavage is reported as 0.669.
Work on C3G C26U yielded a self-cleavage of 1.2.
With C4A A78C the self-cleavage was 0.0308.
C3U G17U showed a self-cleavage of 0.193.
For C3U G17C, the self-cleavage was 0.0297.
With C3G G53U the self-cleavage was 0.549.
With C3G G53A the self-cleavage was 0.742.
G2U C57G gave a self-cleavage of 0.109.
In the case of C3G G28C, the self-cleavage is reported as 0.107.
C3G G67U gave a self-cleavage of 0.626.
In the case of G2C C14A, the self-cleavage is reported as 0.0615.
For G2C C14U, the self-cleavage was 0.0504.
Variant C3U G5U has a self-cleavage of 0.107.
Variant C3U G5C has a self-cleavage of 0.0123.
In the case of C3U G35C, the self-cleavage is reported as 0.49.
C3A C26A showed a self-cleavage of 0.795.
Variant C3U C22U has a self-cleavage of 0.525.
Work on C4A A8G yielded a self-cleavage of 0.192.
With G2U C14A the self-cleavage was 0.12.
Work on G2C G17U yielded a self-cleavage of 0.0784.
G2C C58U showed a self-cleavage of 0.0256.
Variant C3U G25C has a self-cleavage of 0.113.
G2C G34C gave a self-cleavage of 0.
With C3G A70C the self-cleavage was 0.508.
C3U G76C gave a self-cleavage of 0.708.
With C3U A78U the self-cleavage was 0.117.
C3U A78G showed a self-cleavage of 0.446.
C3U C24A showed a self-cleavage of 0.328.
In the case of G2U C48A, the self-cleavage is reported as 0.0378.
For C3U G54U, the self-cleavage was 0.732.
For C3A A78G, the self-cleavage was 0.119.
For C3A A78C, the self-cleavage was 0.0785.
C3U G53A showed a self-cleavage of 1.
In the case of G2C C7U, the self-cleavage is reported as 0.089.
Variant G2U A51C has a self-cleavage of 0.0528.
G2C C48U showed a self-cleavage of 0.0923.
In the case of C3G G35C, the self-cleavage is reported as 1.48.
C3G G52C gave a self-cleavage of 0.658.
Variant C3G G52U has a self-cleavage of 0.691.
In the case of G2C A43C, the self-cleavage is reported as 0.147.
In the case of C3A U9G, the self-cleavage is reported as 0.985.
C3A G59U showed a self-cleavage of 0.755.
Variant G2C C41U has a self-cleavage of 0.0475.
Variant G2U C66A has a self-cleavage of 0.0525.
C3G G29U gave a self-cleavage of 0.0656.
Work on C3A C64A yielded a self-cleavage of 0.564.
G2C G81C showed a self-cleavage of 0.0583.
Work on G2C G81U yielded a self-cleavage of 0.0203.
Variant C4A C33G has a self-cleavage of 0.
C4A A77U gave a self-cleavage of 0.
In the case of C4A A77G, the self-cleavage is reported as 0.0369.
In the case of C3G C41U, the self-cleavage is reported as 0.547.
For C3G C41A, the self-cleavage was 0.217.
For C3A C7A, the self-cleavage was 0.044.
C3A C7G showed a self-cleavage of 0.0223.
Work on C3G C44U yielded a self-cleavage of 0.156.
Work on C3G A8U yielded a self-cleavage of 0.376.
Variant C3G A8G has a self-cleavage of 0.767.
C3A C66G showed a self-cleavage of 0.508.
Variant C3A C66U has a self-cleavage of 0.549.
C3A C75G showed a self-cleavage of 0.0308.
Work on G2U G68C yielded a self-cleavage of 0.0339.
For G2C G25C, the self-cleavage was 0.0346.
C3U G74A showed a self-cleavage of 0.245.
For C4A C22G, the self-cleavage was 0.102.
With C4A C22U the self-cleavage was 0.148.
In the case of C3U A70U, the self-cleavage is reported as 0.678.
In the case of C3U A70G, the self-cleavage is reported as 0.973.
G2C U12C showed a self-cleavage of 0.175.
With G2C G38U the self-cleavage was 0.0764.
C3A G29A showed a self-cleavage of 0.012.
Variant C3G G55C has a self-cleavage of 0.682.
In the case of G2U U79C, the self-cleavage is reported as 0.0434.
In the case of C3A A87C, the self-cleavage is reported as 0.515.
Variant C3A A87G has a self-cleavage of 0.378.
Variant C3A C4U has a self-cleavage of 0.0341.
C3A C4A showed a self-cleavage of 0.0542.
With G2U C32G the self-cleavage was 0.
G2U A71C showed a self-cleavage of 0.0161.
C3A A83C gave a self-cleavage of 0.177.
G2U G53U showed a self-cleavage of 0.0256.
With C3A U46C the self-cleavage was 0.173.
G2C G50U showed a self-cleavage of 0.0594.
Work on C3A C13G yielded a self-cleavage of 0.0396.
C3A C13U gave a self-cleavage of 0.213.
C3A G35C gave a self-cleavage of 0.604.
For C3G U20G, the self-cleavage was 0.
With C3G U20A the self-cleavage was 0.0755.
C4A A43G showed a self-cleavage of 0.158.
C4A A43U showed a self-cleavage of 0.0707.
With G2C A70C the self-cleavage was 0.0248.
In the case of C3A C22G, the self-cleavage is reported as 0.0631.
Variant C3U A42G has a self-cleavage of 0.483.
With C3U A42U the self-cleavage was 0.339.
Variant C4A C21G has a self-cleavage of 0.
With G2U G59C the self-cleavage was 0.0323.
With G2C A45U the self-cleavage was 0.
For C3G U79A, the self-cleavage was 0.491.
Work on C3U G73A yielded a self-cleavage of 0.366.
C3U G73U gave a self-cleavage of 0.257.
In the case of G2U C15A, the self-cleavage is reported as 0.0231.
With G2C C57U the self-cleavage was 0.073.
G2C G31A gave a self-cleavage of 0.0382.
Variant G2U G25U has a self-cleavage of 0.0449.
For C3U A51U, the self-cleavage was 0.992.
Work on C3U A51C yielded a self-cleavage of 0.831.
Variant G2U A42C has a self-cleavage of 0.0297.
C3U G29C showed a self-cleavage of 0.0601.
Variant G2C U9A has a self-cleavage of 0.0755.
With C3U C66A the self-cleavage was 0.69.
Variant C3U C66G has a self-cleavage of 0.758.
Work on G2U C84G yielded a self-cleavage of 0.0213.
Variant C3U C61G has a self-cleavage of 0.816.
In the case of C3U C63G, the self-cleavage is reported as 0.572.
For G2C G67C, the self-cleavage was 0.113.
G2C U47A showed a self-cleavage of 0.0208.
Work on C3G U69G yielded a self-cleavage of 0.658.
G2C G11C showed a self-cleavage of 0.155.
In the case of C3G C4U, the self-cleavage is reported as 0.0171.
In the case of C3U G82A, the self-cleavage is reported as 0.283.
Variant G2C U65G has a self-cleavage of 0.0264.
C3A C18G gave a self-cleavage of 0.
In the case of C3A G81U, the self-cleavage is reported as 0.107.
Variant C3A U37A has a self-cleavage of 0.122.
C4A C48A showed a self-cleavage of 0.225.
Work on C3U C18G yielded a self-cleavage of 0.0779.
G2U G81C showed a self-cleavage of 0.0779.
With C3A G5C the self-cleavage was 0.0339.
With G2C G40C the self-cleavage was 0.122.
C3U C4A showed a self-cleavage of 0.0817.
For G2U U72G, the self-cleavage was 0.
C3G A42C gave a self-cleavage of 0.128.
In the case of G2C G6C, the self-cleavage is reported as 0.0386.
Work on G2C G6A yielded a self-cleavage of 0.0839.
Variant C4A A51G has a self-cleavage of 0.502.
Variant C4A A51U has a self-cleavage of 0.145.
For G2U G54U, the self-cleavage was 0.0589.
Variant C3A G68A has a self-cleavage of 0.408.
With C3G A43G the self-cleavage was 0.125.
With C3A G82A the self-cleavage was 0.0811.
With C3A G39C the self-cleavage was 0.0196.
C3G C62U gave a self-cleavage of 0.822.
C3A A56U gave a self-cleavage of 0.71.
